Variants at the floor of the assay were thinned out.
B1: TPR 5TU (parent)
chain: GGAUCUUCUCGAUCUAACAAAAAAGACAAAUCUGCCACAAAGCUUGAGAGCAUCUUCGGAUGCAGAGGCGGCAGCCUUCGGUGGCGCGAUAGCGCCAACGUUCUCAACUAUGACACGCAAAACGCGUGCUCCGUUGAAUGGAGUUUAUCAUG

Variants of: B1
Assay: polymerase ribozyme fitness, log enrichment relative to wild type (log ratio); higher = more active; in vitro selection for triplet polymerase activity
How it was run: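 Genotype fitness is the logarithm of its enrichment divided by wild-type enrichment, using inverse-variance-weighted averages of replicates. That logarithm is base 2. Enrichment was measured by Illumina sequencing of input and output libraries from one triplicate in vitro selection round, with frozen incubation at −7 °C, on PCR-built, transcribed mutant libraries of each subunit of a heterodimeric triplet polymerase ribozyme, retaining genotypes with ≥10 input reads and ≥1 read per output.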
In the case of GGAUCUUCUCGAUCUAACAGAUAAGACAAAUCUGCCACAAAGCUUGAGAGCAUCUUCGAAUGCAGAGGCGGCAGCCUUCGGUGGCGCGAUAGGGCCAGCGUUCUCAACUAUGACACGCAAAACGCGUGCUCCGUUGGAGGGAGUUUAUCAUG [A20G A22U G59A C93G A98G A137G U139G], the “polymerase ribozyme fitness (log ratio)” value is reported as no more than -4.2.
For GGAUCUUCUCGAUCUAACAGAAAAGACAAAUCUGCCACAAAGCUUGAGAGCAUCUUCGGAUGCAGAGGCGGCAGCCUUCGGUGGCGCGAUUGCGCCAACGUUCUCAACUAUGACACGCAAAACGCGUGCUCCGUUGAAUGGAGUUUAUCAUG [A20G A91U], the “polymerase ribozyme fitness (log ratio)” value was no more than -4.2.
For GGAUCUUCUCGAUCUAACAGAACAGACAAAUCUGCCACAAAGCUUGAGAGCAUCUUCGGAUGCAGAGGCGGCAGCCUUCGGUGGCGCGAUAGCGCCAACGUUCUCAACUAUGACACGCAAAACGCGUGCUCCGUUGAAUGGAGGUUAUCAUG [A20G A23C U144G], the “polymerase ribozyme fitness (log ratio)” value was no more than -4.2.
In the case of GGAUCUUCUCGAUCUAACAGAAAAGACAAAUCUGCCACAAAGCUUGCCACCAUCUCCGGAUGCAGAGGCGGCAGCCUUCGGUGGCGAGAUAGCGGCAACGUUCUCAACUAUGACACGCAAAACGCGUGCUCCGUUGAAAGAAGUUUAUCAUG [A20G A47C G48C G50C U56C C87A C95G U139A G141A], the “polymerase ribozyme fitness (log ratio)” value is reported as -4.1.
With GGAUCUUCUCGAUCUAACAGAAAAGACAAAUCUGCCACAUAGCUUGAGAGCAUCUUCGGAUGCAGAGGCGGCAGCCCUCGGUGGCGCGAUAGCGCCAACGUUCUCAACUAUGACACGCAAAACGCGUGCUCCGUUGAAUGGAGUUUAUCAUG [A20G A40U U77C] the “polymerase ribozyme fitness (log ratio)” value was no more than -4.2.
In the case of GGAUCUUCUCGAUCUAACAGAAAAGACGAAUCUGCCACAAAGCUUGAGAGCAUCUUCGGAUGCAGAGGCGGCAGCCUUCGGUGGCGCGAAAGAGGCAACGUUCUCUACUAUGACACGCAAAAUGCGUGCUCCGUUGAAUGGAGUUUAUCAUG [A20G A28G U90A C93A C95G A106U C123U], the “polymerase ribozyme fitness (log ratio)” value is reported as no more than -4.2.
In the case of GGAUCUUCUCGAUCUAACAGAAAAGACAUAUCUGCCACAAAGCUUGAGAGGAUCUUCGGAUGCAGAGGCGGCAGCCUUCGGUGGCGGGAUAGCGCCAACGUUCUCAACUAUGACACGCAAAACGCGUGCUCCGUUGAAUGGAGUUUAUCAUG [A20G A29U C51G C87G], the “polymerase ribozyme fitness (log ratio)” value is reported as no more than -4.2.
With GGAUCUUCUCGAUCUAACAGAAAAGACAAUUCUGCCACAAAGCUUGAGAGCAUCUUCGGAUGCAGAGGCGGCAGCCUUCGGUAGCGCGAUAGCGCCAACGUUCUCAACUCUGACACGCAAAACGCGUGCUCCGUUGAAUGGAGUUUACCAUG [A20G A30U G83A A110C U148C] the “polymerase ribozyme fitness (log ratio)” value was no more than -4.2.
For GGAUCUUCUCGAUCUAACAGAAAAGACAAUUCUGCCACAAAGCUUGAGAGCAUCUUCGGAUGCAGAGGCGGCAGCCUUCGGUGGCGCGAUAGCGUCAACGUUCUCAACUAUGACACGCAAAACGCGUGCUCCGUUGAAUGGAGUUUAUCAUG [A20G A30U C95U], the “polymerase ribozyme fitness (log ratio)” value was -3.5.
In the case of GGAUCUUCUCGAUCUAACAGAAAUGACAAAUCUGCCACAAAGCUUGAGAGCAUCUUCGGAUGCAGAGGCGGCAGCCUUCGGUGGCGCGAUAGCGCCAACGUUCUCAACUAAGACACGCAAAACGCGUGCUCCGUUGAAUGGUUUUUAUCAUG [A20G A24U U111A A142U G143U], the “polymerase ribozyme fitness (log ratio)” value is reported as no more than -4.2.
With GGAUCUUCUCGAUCUAACAGAAAGGACAAAUCUGCCACACAGCUUGAGCGCAUCUUCGGAUGCAGAGGCGGCAGCCUUCGGUGGAGCGAUAGCGCCAACGUUCUCAACUAUGACACGCAAAACGCGUGCUCCGUUGAAUGGAGUUUAUCAUG [A20G A24G A40C A49C C85A] the “polymerase ribozyme fitness (log ratio)” value was no more than -4.2.
With GGAUCUUCUCGAUCUAACAGAAAGGACAAAUCUGCCACAAAGCUUGAGAGUAUCUUCGGAUGCAGAGGCGGCAGCCUUCGGUGGUGCGAUAGCGCCAACGUUCUCAACUAUGACACGCAUAACGCGUGCUCCGUUGAAUGGAGUUUAUGAUG [A20G A24G C51U C85U A120U C149G] the “polymerase ribozyme fitness (log ratio)” value was no more than -4.2.
In the case of GGAUCUUCUCGAUCUAACAGAAAAGUCAAAUCUGCCACCAAGCUUGAGAGCAUCUUCGGAUGCAGAGGCGGCAGCCUUCGGUGGCCCGAUAGCGCCAACGUUCUCAACUAUGACACGCAAAACGCGUGCUCCGUUGAAUGGAGUUUAUCCUG [A20G A26U A39C G86C A150C], the “polymerase ribozyme fitness (log ratio)” value is reported as no more than -4.2.
With GGAUCUUCUCGAUCUAACAGAAAAGACAAAUGUGCCACAAAGCUUGAGAGCAUCUUCGGAUGCAGAGGCGGCAGCCUUCGGUGGCUAGAUAGCGCCAACGUUCUCAACAAUGACACGCAAAACGCGUGCUCCGUUGAAUGGAGUUUAUCAUG [A20G C32G G86U C87A U109A] the “polymerase ribozyme fitness (log ratio)” value was no more than -4.2.
For GGAUCUUCUCGAUCUAACAGAAAAGACAAAUCUGGCACAAAGCUUGAGAGAAUCUUCGGAUGCAGAGGCGGCAGCCUUCGGUGGUGCGAUAGCGCCAAUGUUCUCAACUAUGACACGCAAAACGCGUGAUCCGUUGAAUGGAGUUUAACAUG [A20G C35G C51A C85U C99U C129A U148A], the “polymerase ribozyme fitness (log ratio)” value was no more than -4.2.
In the case of GGAUCUUCUCGAUCUAACAGAAAAGACAAAUCUGCGACAAAGCUUGAGAGCAUCUUCGGAUGCAGAGGCGGCAGCCUUCGGUAGCGCGAUGGCGCCAACGUUCUCAACUAUGACACGCAAAACGCGUGCUCCGUUGAAUGGGGUUUAUCAUG [A20G C36G G83A A91G A142G], the “polymerase ribozyme fitness (log ratio)” value is reported as no more than -4.2.
With GGAUCUUCUCGAUCUAACAGAAAAGACAAAUCUGCCACACGGCUUGAGCGCAUCUUCGGAUGCAGAGGCGGCAGCGUUCGGUGGCGCAAUAGCGCUAACGUUCUCAACUAUGACACGCAAAACGCGUGCUCCGUUGAAUGGAGUUUAUCAUG [A20G A40C A41G A49C C76G G88A C96U] the “polymerase ribozyme fitness (log ratio)” value was no more than -4.2.
With GGAUCUUCUCGAUCUAACAGAUAAGACAAAUCUGCCACAAAGCUUGAGAGCAUCUUCGGAUGCAGAGGCUGCAGCCUUCGGUGGGGCGAUAGCGCCAACGUUCUCAACUUUGACACGCAACACGCGUGCUCCGUUGAAUGGAGUUUAUCAUG [A20G A22U G70U C85G A110U A121C] the “polymerase ribozyme fitness (log ratio)” value was no more than -4.2.
In the case of GGAUCUUCUCGAUCUAACAGAAAAGAGAAAUCUGCCACAAAGCUUGAGAGCAUCUUCGGAUGCAUAGGCGGCAGCCUUCGAUGGCGCAAUAGCGCCAACGUUCUCAACUAUGACACGCAAAACGCGUGCUCCGUUGACUGGAUUUUAUCAUG [A20G C27G G65U G81A G88A A138C G143U], the “polymerase ribozyme fitness (log ratio)” value is reported as no more than -4.2.

— the RNAGym collection of RNA variant scans (doi:10.1073/pnas.2313332121)
